T1: 6×His-IKKβ(1-669) EE (Homo sapiens, UniProt O14920, S177E/S181E)
T1 construct: a nearly full-length (residues 1-669) and constitutively active (S177E/S181E) mutant construct of human IKKβ; made in house; host or cells: Sf21 insect cells (baculovirus)
T1 sequence (O14920 1-669 S177E/S181E): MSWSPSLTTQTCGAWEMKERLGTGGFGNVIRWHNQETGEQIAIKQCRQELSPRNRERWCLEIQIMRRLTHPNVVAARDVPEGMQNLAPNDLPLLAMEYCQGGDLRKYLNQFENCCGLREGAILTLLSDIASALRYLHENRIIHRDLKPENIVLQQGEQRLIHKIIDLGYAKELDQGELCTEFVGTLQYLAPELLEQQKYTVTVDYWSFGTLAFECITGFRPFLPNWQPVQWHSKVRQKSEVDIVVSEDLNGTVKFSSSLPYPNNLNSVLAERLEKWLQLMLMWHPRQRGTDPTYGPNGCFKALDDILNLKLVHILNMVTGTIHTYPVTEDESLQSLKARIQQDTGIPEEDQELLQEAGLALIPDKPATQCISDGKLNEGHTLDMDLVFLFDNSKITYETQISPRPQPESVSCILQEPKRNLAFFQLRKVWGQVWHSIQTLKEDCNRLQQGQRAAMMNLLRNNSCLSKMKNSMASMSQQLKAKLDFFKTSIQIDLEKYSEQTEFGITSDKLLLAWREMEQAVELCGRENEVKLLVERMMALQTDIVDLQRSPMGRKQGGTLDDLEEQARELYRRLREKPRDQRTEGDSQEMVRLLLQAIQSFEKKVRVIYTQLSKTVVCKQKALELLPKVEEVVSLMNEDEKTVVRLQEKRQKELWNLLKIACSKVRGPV

T2: G1-IKKβ, full-length wt IKKβ fused to the Gluc1 fragment (human, UniProt O14920 1-756)
T2 construct: Expressed in HEK293T cells for GPCA; full-length; also called Gluc1-IKKβ; not shown: Gluc1 fragment of Gaussia princeps luciferase and flexible 20 amino acid linker, N-terminal
T2 sequence (looked up): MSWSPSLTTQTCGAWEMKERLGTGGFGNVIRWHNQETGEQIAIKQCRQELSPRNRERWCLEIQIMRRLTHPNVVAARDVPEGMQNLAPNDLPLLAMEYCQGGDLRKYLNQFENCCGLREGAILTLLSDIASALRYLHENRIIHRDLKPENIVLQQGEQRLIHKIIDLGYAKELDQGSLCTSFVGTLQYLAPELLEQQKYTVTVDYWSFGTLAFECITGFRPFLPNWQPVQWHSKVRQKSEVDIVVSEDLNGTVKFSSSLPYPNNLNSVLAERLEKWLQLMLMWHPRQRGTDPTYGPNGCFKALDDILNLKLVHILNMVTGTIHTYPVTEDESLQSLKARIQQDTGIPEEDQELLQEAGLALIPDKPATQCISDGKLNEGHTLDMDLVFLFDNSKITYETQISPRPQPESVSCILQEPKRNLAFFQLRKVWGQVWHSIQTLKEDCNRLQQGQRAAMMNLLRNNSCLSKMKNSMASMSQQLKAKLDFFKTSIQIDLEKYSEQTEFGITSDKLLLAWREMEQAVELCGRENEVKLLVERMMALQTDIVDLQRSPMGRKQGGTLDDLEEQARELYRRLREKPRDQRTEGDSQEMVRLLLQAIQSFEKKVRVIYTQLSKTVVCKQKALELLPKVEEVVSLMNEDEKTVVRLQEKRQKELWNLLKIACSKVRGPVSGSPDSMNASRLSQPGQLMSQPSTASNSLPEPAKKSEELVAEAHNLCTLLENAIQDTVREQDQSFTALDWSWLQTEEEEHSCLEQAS

T3: G1-IKKα, full-length wt IKKα fused to the Gluc1 fragment (human, UniProt O15111 1-745)
T3 construct: Expressed in HEK293T cells for GPCA; full-length; also called Gluc1-IKKα; not shown: Gluc1 fragment of Gaussia princeps luciferase and flexible 20 amino acid linker, N-terminal
T3 sequence (looked up): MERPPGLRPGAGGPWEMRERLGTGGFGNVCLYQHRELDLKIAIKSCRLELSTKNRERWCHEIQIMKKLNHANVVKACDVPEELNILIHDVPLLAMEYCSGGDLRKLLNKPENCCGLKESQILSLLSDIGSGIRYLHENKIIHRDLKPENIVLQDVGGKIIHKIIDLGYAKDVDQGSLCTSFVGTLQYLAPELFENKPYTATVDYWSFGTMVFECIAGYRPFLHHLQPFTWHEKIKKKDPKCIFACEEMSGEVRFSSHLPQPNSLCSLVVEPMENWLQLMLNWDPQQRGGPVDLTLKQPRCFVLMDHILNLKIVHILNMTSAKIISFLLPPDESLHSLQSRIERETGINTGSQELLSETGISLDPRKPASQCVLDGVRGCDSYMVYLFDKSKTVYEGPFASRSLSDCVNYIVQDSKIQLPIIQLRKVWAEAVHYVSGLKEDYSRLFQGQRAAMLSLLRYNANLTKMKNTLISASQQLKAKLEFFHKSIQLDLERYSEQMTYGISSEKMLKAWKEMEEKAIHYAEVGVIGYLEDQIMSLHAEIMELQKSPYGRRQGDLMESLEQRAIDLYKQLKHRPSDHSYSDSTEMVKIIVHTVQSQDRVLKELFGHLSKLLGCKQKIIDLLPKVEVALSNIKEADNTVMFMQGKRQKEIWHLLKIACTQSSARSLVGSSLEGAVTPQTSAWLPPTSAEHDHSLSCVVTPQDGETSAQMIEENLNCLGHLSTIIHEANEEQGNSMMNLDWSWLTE

B1: 73-317 YD/SS (other)
chain: DGDSFLHLAIIHEEKALTMEVIRQVKGDLAFLNFQNNLQQTPLHLAVITNQPEIAEALLGAGCDPELRDFRGNTPLHLACEQGCLASVGVLTQSCTTPHLHSILKATNYNGHTCLHLASIHGYLGIVELLVSLGADVNAQEPCNGRTALHLAVDLQNPDLVSLLLKCGADVNRVTYQGYSPYQLTWGRPSTRIQQQLGQLTLENLQMLPESEDEESYDTESEFTEFTEDELPSDSCVFGGQRLTL
notes: also called G2-IκBα 73-317 YD/SS; G2-IκBα(73-317) Y305S/D307S; not shown: N-terminal Gluc2 fragment of Gaussia princeps luciferase and the flexible 20 amino acid linker (pSPICA-N2)
B2: 73-288 (other)
chain: DGDSFLHLAIIHEEKALTMEVIRQVKGDLAFLNFQNNLQQTPLHLAVITNQPEIAEALLGAGCDPELRDFRGNTPLHLACEQGCLASVGVLTQSCTTPHLHSILKATNYNGHTCLHLASIHGYLGIVELLVSLGADVNAQEPCNGRTALHLAVDLQNPDLVSLLLKCGADVNRVTYQGYSPYQLTWGRPSTRIQQQLGQLTLENLQMLPESEDEES
notes: also called G2-IκBα 73-288; IκBα(73-288); not shown: N-terminal Gluc2 fragment of Gaussia princeps luciferase and the flexible 20 amino acid linker (pSPICA-N2)
B3: G2-IκBα FL (other, UniProt P25963 1-317, looked up)
chain: MFQAAERPQEWAMEGPRDGLKKERLLDDRHDSGLDSMKDEEYEQMVKELQEIRLEPQEVPRGSEPWKQQLTEDGDSFLHLAIIHEEKALTMEVIRQVKGDLAFLNFQNNLQQTPLHLAVITNQPEIAEALLGAGCDPELRDFRGNTPLHLACEQGCLASVGVLTQSCTTPHLHSILKATNYNGHTCLHLASIHGYLGIVELLVSLGADVNAQEPCNGRTALHLAVDLQNPDLVSLLLKCGADVNRVTYQGYSPYQLTWGRPSTRIQQQLGQLTLENLQMLPESEDEESYDTESEFTEFTEDELPYDDCVFGGQRLTL
notes: range 1-317; Expressed in HEK293T cells for GPCA; also called full-length IκBα; not shown: Gluc2 fragment of Gaussia princeps luciferase and flexible 20 amino acid linker, N-terminal
B4: 39-852 (other)
chain: YLVIVEQPKQRGFRFRYGCEGPSHGGLPGASSEKGRKTYPTVKICNYEGPAKIEVDLVTHSDPPRAHAHSLVGKQCSELGICAVSVGPKDMTAQFNNLGVLHVTKKNMMGTMIQKLQRQRLRSRPQGLTEAEQRELEQEAKELKKVMDLSIVRLRFSAFLRASDGSFSLPLKPVISQPIHDSKSPGASNLKISRMDKTAGSVRGGDEVYLLCDKVQKDDIEVRFYEDDENGWQAFGDFSPTDVHKQYAIVFRTPPYHKMKIERPVTVFLQLKRKRGGDVSDSKQFTYYPLVEDKEEVQRKRRKALPTFSQPFGGGSHMGGGSGGAAGGYGGAGGGGSLGFFPSSLAYSPYQSGAGPMGCYPGGGGGAQMAATVPSRDSGEEAAEPSAPSRTPQCEPQAPEMLQRAREYNARLFGLAQRSARALLDYGVTADARALLAGQRHLLTAQDENGDTPLHLAIIHGQTSVIEQIVYVIHHAQDLGVVNLTNHLHQTPLHLAVITGQTSVVSFLLRVGADPALLDRHGDSAMHLALRAGAGAPELLRALLQSGAPAVPQLLHMPDFEGLYPVHLAVRARSPECLDLLVDSGAEVEATERQGGRTALHLATEMEELGLVTHLVTKLRANVNARTFAGNTPLHLAAGLGYPTLTRLLLKAGADIHAENEEPLCPLPSPPTSDSDSDSEGPEKDTRSSFRGHTPLDLTCSTKVKTLLLNAAQNTMEPPLTPPSPAGPGLSLGDTALQNLEQLLDGPEAQGSWAELAERLGLRSLVDTYRQTTSPSGSLLRSYELAGGDLAGLLEALSDMGLEEGVRLLRGPET
notes: also called G2-p100 39-852; not shown: N-terminal Gluc2 fragment of Gaussia princeps luciferase and the flexible 20 amino acid linker (pSPICA-N2)

How the values were obtained:
6×His-IKKβ(1-669) EE = molecular target: T1, 6×His-IKKβ(1-669) EE; test: MBP-pulldown of recombinant IKKβ by MBP-peptide fusions; type: binding; details: 0.3 μM IKKβ, Western blot
Description: Experiments were performed in PD buffer (20 mM Tris pH 8.0, 150 mM NaCl, 2 mM DTT). For each experiment, 10 μl of amylose resin (dry bead volume) coupled to MBP-fusion constructs were incubated with […] of purified 6×His-IKKα(10-667) EE and 6×His-IKKβ (1-669) EE constructs adjusted at a concentration of 0.3 μM for 2 hours at 4° C. After two quick washing steps with PD buffer, complexes were eluted by incubation with 20 μl of the same buffer supplemented with 20 mM maltose for 15 minutes at 4° C. After mild centrifugation, supernatants were recovered and migrated onto two separate 10% SDS-PAGE gels. One gel was used for Western blot analysis to detect His-IKKα or His-IKKβ using and anti-6×His antibody (Sigma, #SAB4301134), the other for Coomassie staining to detect MBP-fusion proteins. Quantification of band intensity was done using the Image J software.

[1] = molecular target: T2, G1-IKKβ, full-length wt IKKβ fused to …; test: GPCA (Gaussia princeps protein complementation assay) in HEK293T cells, NLR, mean ± SD of triplicates
Description: (§1) HEK293T cells were transfected using the reverse transfection method. Transfection mixes containing 100 ng of pSPICA-N2 and 100 ng of pSPICA-N1 plasmids expressing test proteins plus JetPEI® (Polyplus transfection) were dispensed in white 96-well plates. HEK293T cells were then seeded on the DNA mixes at a concentration of 4.2×10^4 cells per well. 48 hours after transfection, cells were washed with 50 μl of PBS and lysed with 40 μl of Renilla lysis buffer (Promega, E2820) for 30 minutes with agitation. Gaussia princeps luciferase enzymatic activity was measured using a Berthold Centro LB960 luminometer by injecting 50 μl per well of luciferase substrate reagent (Promega, E2820) and counting luminescence for 10 seconds. Results are expressed as a fold change normalized over the sum of controls, specified herein as normalized luminescence ratio (NLR) 29. For a given protein pair A/B, NLR=(Gluc1-A+Gluc2-B)/[(Gluc1-A+Gluc2)+(Gluc1+Gluc2-B)]. All interactions were measured in three independent experiments, with each experiment being carried out in triplicate. The expression levels of Gluc1- and Gluc2-fused proteins were checked by Western blotting. 24 hours post-transfection, HEK293T cells were collected, lysed by incubation on ice and centrifuged. Aliquots of cleared supernatants were loaded onto an 10% SDS-PAGE gel.

[2] = molecular target: T3, G1-IKKα, full-length wt IKKα fused to …; test: as above
Description: as §1

[3] = molecular target: T3, G1-IKKα, full-length wt IKKα fused to …; test: GPCA (Gaussia princeps protein complementation assay), G1-IKKα FL with G2-p100 constructs, NLR
Description: as §1

Row | Molecule | interaction with IKKβ by pulldown (6×His-IKKβ(1-669) EE) | binding result [1] | binding result [2] | binding result [3]
1 | DELPYDDCVFGGQRLTL [IκBα pep(s), 17 amino acid peptide from the IκBα C-terminus (residues 301-317)] | necessary and sufficient to interact with IKKβ | – | – | –
2 | EFTEDELPYDDFVFGGQRLTL [C308F IκBα pep, IκBα pep with C308F substitution] | clearly enhance binding to IKKβ | – | – | –
3 | B1 | – | binds | binds | –
4 | B2 | – | binds | binds | –
5 | B3 | – | binds | binds | –
6 | B4 | – | – | – | binds
